Assay results taken from IntAct's records for PubMed 17699754.

B1: DnaA initiator-associating protein DiaA (Escherichia coli (strain K12)), P66817 (parent)
chain: MQERIKACFTESIQTQIAAAEALPDAISRAAMTLVQSLLNGNKILCCGNGTSAANAQHFAASMINRFETERPSLPAIALNTDNVVLTAIANDRLHDEVYAKQVRALGHAGDVLLAISTRGNSRDIVKAVEAAVTRDMTIVALTGYDGGELAGLLGPQDVEIRIPSHRSARIQEMHMLTVNCLCDLIDNTLFPHQDD
partner: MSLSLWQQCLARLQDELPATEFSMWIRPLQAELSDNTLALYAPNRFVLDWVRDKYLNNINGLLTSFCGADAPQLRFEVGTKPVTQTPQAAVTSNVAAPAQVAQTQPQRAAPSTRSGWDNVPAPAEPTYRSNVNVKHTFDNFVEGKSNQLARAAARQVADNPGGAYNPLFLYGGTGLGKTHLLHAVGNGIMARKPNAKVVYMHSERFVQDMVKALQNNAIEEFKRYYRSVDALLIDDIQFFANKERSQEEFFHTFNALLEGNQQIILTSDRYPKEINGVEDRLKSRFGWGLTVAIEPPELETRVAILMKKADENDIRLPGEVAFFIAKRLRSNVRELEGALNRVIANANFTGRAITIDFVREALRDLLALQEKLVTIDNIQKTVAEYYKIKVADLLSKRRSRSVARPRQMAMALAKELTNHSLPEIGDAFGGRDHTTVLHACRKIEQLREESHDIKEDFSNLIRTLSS

Variants of: B1
Conditions: with dnaa_ecoli dnaA

Variant | effect of a mutation on the interaction
MQERIKACFTESIQTQIAAAEALPDAISRAAMTLVQSLLNGNKILCCGNGTSAANAQHFAASMINRFETERASLPAIALNTDNVVLTAIANDRLHDEVYAKQVRALGHAGDVLLAISTRGNSRDIVKAVEAAVTRDMTIVALTGYDGGELAGLLGPQDVEIRIPSHRSARIQEMHMLTVNCLCDLIDNTLFPHQDD [P72A] | decreasing interaction
MQERIKACFTESIQTQIAAAEALPDAISRAAMTLVQSLLNGNKILCCGNGTSAANAQHFAASMINRFETERSSLPAIALNTDNVVLTAIANDRLHDEVYAKQVRALGHAGDVLLAISTRGNSRDIVKAVEAAVTRDMTIVALTGYDGGELAGLLGPQDVEIRIPSHRSARIQEMHMLTVNCLCDLIDNTLFPHQDD [P72S] | decreasing interaction
MQERIKACFTESIQTQIAAAEALPDAISRAAMTLVQSLLNGNKILCCGNGTSAANAQHFAASMINRFETERPSLPAIALNTDDVVLTAIANDRLHDEVYAKQVRALGHAGDVLLAISTRGNSRDIVKAVEAAVTRDMTIVALTGYDGGELAGLLGPQDVEIRIPSHRSARIQEMHMLTVNCLCDLIDNTLFPHQDD [N83D] | decreasing interaction

The next lines start with the values.

effect of a mutation on the interaction | Variant
disrupting interaction | MQERIKACFTESIQTQIAAAEALPDAISRAAMTLVQSLLNGNKILCCGNGTSAANAQHFAASMINRFETERPSLPAIALNTDNVVLTAIANDRLHDEVYAKQVRALGHAGDVLLAISTRGNSRDIVKAVEAAVTRDMTIVALTGYDGGELAGLLGPQDVEIRIPSHRSARIQEMHMLTVNCLCDLIDNTPFPHQDD [L190P]
disrupting interaction | MQERIKACFTESIQTQIAAAEALPDAISRAAMTLVQSLLNGNKILCCGNGTSAANAQHFAASMINRFETERPSLPAIALNTDNVVLTAIANDRLHDEVYAKQVRALGHAGDVLLAISTRGNSRDIVKAVEAAVTRDMTIVALTGYDGGELAGLLGPQDVEIRIPSHRSARIQEMHMLTVNCLCDLIDNTAFPHQDD [L190A]
decreasing interaction | MQERIKACFTESIQTQIAAAEALPDAISRAAMTLVQSLLNGNKILCCGNGTSAANAQHFAASMINRFETERPSLPAIALNTDNVVLTAIANDRLHDEVYAEQVRALGHAGDVLLAISTRGNSRDIVKAVEAAVTRDMTIVALTGYDGGELAGLLGPQDVEIRIPSHRSARIQEMHMLTVNCLCDLIDNTLFPHQDD [K101E]
disrupting interaction | MQERIKACFTESIQTQIAAAEALPDAISRAAMTLVQSLLNGNKILCCGNGTSAANAQHFAASMINRFETERPSLPAIALNTDNVVLTAIANDRLHDEVYAKQVRALGHAGDVLLAISTRGNSRDIVKAVEAAVTRDMTIVALTGYDGGELAGLLGPQDVEIRIPSHRSARIQEMHMLTVNCLCDLIDNTLLPHQDD [F191L]
disrupting interaction | MQERIKACFTESIQTQIAAAEALPDAISRAAMTLVQSLLNGNKILCCGNGTSAANAQHFAASMINRFETERPSLPAIALNTDNVVLTAIANDRLHDEVYAKQVRALGHAGDVLLAISTRGNSRDIVKAVEAAVTRDMTIVALTGYDGGELAGLLGPQDVEIRIPSHRSARIQEMHMLTVNCLCDLIDNTLSPHQDD [F191S]

Variants of: B1
Conditions: with dnaa_ecoli dnaA
Remark: another data set of the same source

Variant | effect of a mutation on the interaction
MQERIKACFTESIQTQIAAAEALPDAISRAAMTLVQSLLNGNKILCCGNGTFAANAQHFAASMINRFETERPSLPAIALNTDNVVLTAIANDRLHDEVYAKQVRALGHAGDVLLAISTRGNSRDIVKAVEAAVTRDMTIVALTGYDGGELAGLLGPQDVEIRIPSHRSARIQEMHMLTVNCLCDLIDNTLFPHQDD [S52F] | decreasing interaction
